Laboratory results taken from patent publication US20250304651A1 (ACADEMISCH ZIEKENHUIS LEIDEN H O D N LEIDS UNIVERSITAIR …, published 2025).

What was measured:
[1] = target: T1, ΔNPM1 (mutant NPM1; dNPM1) peptide on HLA-A*11:01 (human); experiment: multimer staining
T1 peptide: AVEEVSLRK

[2] = target: T2, ΔNPM1 (mutant NPM1; dNPM1) peptide on HLA-A*03:01 (human); experiment: cytokine release
T2 peptide: AVEEVSLRK

[3] = target: T3, HLA-A*03:01 (monomer for refolding) (human); experiment: monomer refolding
T3 construct: Monomer production is described in detail only for HLA-A*02:01

[4] = target: T4, HLA-A*11:01 (monomer for refolding) (human); experiment: monomer refolding
T4 construct: Monomer production is described in detail only for HLA-A*02:01

[5] = target: HLA-A*02:01 (recombinant heavy chain with human β2-microglobulin, monomer) (human); experiment: monomer refolding
[6] = target: T2, ΔNPM1 (mutant NPM1; dNPM1) peptide on …; experiment: multimer staining
[7] = target: T5, ΔNPM1 (mutant NPM1; dNPM1) peptide on HLA-A*03:01 (human); experiment: multimer staining
T5 peptide: CLAVEEVSLRK

[8] = target: T1, ΔNPM1 (mutant NPM1; dNPM1) peptide on …; experiment: cytokine release
[9] = target: T6, HLA-A*01:01 (monomer for refolding) (human); experiment: monomer folding for tetramer production
T6 construct: Monomer production is described in detail only for HLA-A*02:01

B1: dNPM1-A*11:01 TCR (clone 26.2.D6) (TCR, V domains shown)
Valpha: GEDVEQSLFLSVREGDSSVINCTYTDSSSTYLYWYKQEPGAGLQLLTYIFSNMDMKQDQRLTVLLNKKDKHLSLRIADTQTGDSAIYFCAESKGQNFVFGPGTRLSVLP
Vbeta: DGGITQSPKYLFRKEGQNVTLSCEQNLNHDAMYWYRQDPGQGLRLIYYSHIVNDFQKGDIAEGYSVSREKKESFPLTVTSAQKNPTAFYLCASTTWGTGGHEQYFGPGTRLTVT
Question: Does B1 bind [1]?
Answer: Result: recognises

Question: Does B1 bind [2]?
Answer: Result: no recognition

Question: Does CLAVEEVSLRK (Synthetic peptide) [ΔNPM1 peptide CLAVEEVSLRK] bind [3]?
Answer: Result: binds

Question: Does CLAVEEVSLRK (Synthetic peptide) [ΔNPM1 peptide CLAVEEVSLRK] bind [4]?
Answer: Result: binds

B2: dNPM1-A*11:01 TCR (clone 6F11) (TCR, V domains shown)
Valpha: AQSVTQLDSQVPVFEEAPVELRCNYSSSVSVYLFWYVQYPNQGLQLLLKYLSGSTLVKGINGFEAEFNKSQTSFHLRKPSVHISDTAEYFCAVSPAGNQFYFGTGTSLTVIP
Vbeta: GAGVSQSPRYKVTKRGQDVALRCDPISGHVSLYWYRQALGQGPEFLTYFNYEAQQDKSGLPNDRFSAERPEGSISTLTIQRTEQRDSAMYRCASSLGSNQPQHFGDGTRLSIL
Question: Does B2 bind [1]?
Answer: Result: recognises

Question: Does B2 bind [2]?
Answer: Result: no recognition

Question: Does CLAVEEVSL (Synthetic peptide) [ΔNPM1 peptide CLAVEEVSL] bind [5]?
Answer: Result: binds

B3: dNPM1-A*03:01 TCR (clone 31.3.F1) (TCR, V domains shown)
Valpha: QKEVEQNSGPLSVPEGAIASLNCTYSDRGSQSFFWYRQYSGKSPELIMSIYSNGDKEDGRFTAQLNKASQYVSLLIRDSQPSDSATYLCALSGGGQNFVFGPGTRLSVLP
Vbeta: EAGVTQFPSHSVIEKGQTVTLRCDPISGHDNLYWYRRVMGKEIKFLLHFVKESKQDESGMPNNRFLAERTGGTYSTLKVQPAELEDSGVYFCASSQGSGFRHFGDGTRLSIL
Question: Does B3 bind [6]?
Answer: Result: recognises

Question: Does B3 bind [7]?
Answer: Result: no recognition

Question: Does B3 bind [8]?
Answer: Result: no recognition

B4: ΔNPM1 peptide AVEEVSLRK (peptide)
peptide: AVEEVSLRK
notes: Eluted natural ligand in the ligandome work
Question: Does B4 bind [3]?
Answer: Result: binds

Question: Does B4 bind [4]?
Answer: Result: binds

Question: Does B4 bind [9]?
Answer: Result: binds
